Results taken from US20210292396A1.
Where a chain is given by its changes, count along the chain named.

Tests used:
Test in all cases: cell-based or functional assay
[1] = target: Env of HIV isolate P1981.C5.3 (clade G) (HIV)
[2] = target: HIV Env of isolate 426c (HIV)
[3] = target: Env of HIV isolate SS1196.01 (clade B) (HIV)
[4] = target: Env of HIV isolate 6535.3 (clade B) (HIV)
[5] = target: Env of HIV isolate CNE3 (clade AE) (HIV)
[6] = target: HIV Env of isolate DU422.01 (HIV)
[7] = target: Env of HIV isolate T280-5 (clade AG) (HIV)
[8] = target: HIV Env of isolate TV1.29 (HIV)
[9] = target: Env of HIV isolate 6540.v4.c1 (clade AC) (HIV)
[10] = target: Env of HIV isolate MS208.A1 (clade A) (HIV)
[11] = target: Env of HIV isolate T33-7 (clade AG) (HIV)
[12] = target: Env of HIV isolate CNE30 (clade C in Table 7) (HIV)
[13] = target: Env of HIV isolate RHPA.7 (clade B) (HIV)
[14] = target: Env of HIV isolate 620345.c1 (clade AE) (HIV)
[15] = target: HIV Env of isolate 26191-2.48 (HIV)
[16] = target: HIV Env of isolate CH119.10 (HIV)
[17] = target: Env of HIV isolate ZM233.6 (clade C) (HIV)
[18] = target: Env of HIV isolate CAP210.E8 (clade C) (HIV)
[19] = target: Env of HIV isolate CE703010217.B6 (clade C) (HIV)
[20] = target: Env of HIV isolate T278-50 (clade AG) (HIV)
[21] = target: Env of HIV isolate CH119.10 (clade BC) (HIV)
[22] = target: HIV Env of isolate 6405.v4.c34 (HIV)
[23] = target: Env of HIV isolate SC422.8 (clade B) (HIV)
[24] = target: Env of HIV isolate C2101.c1 (clade AE) (HIV)
[25] = target: Env of HIV isolate 6785.v5.c14 (clade C) (HIV)
[26] = target: Env of HIV isolate TRO.11 (clade B) (HIV)
[27] = target: Env of HIV isolate R2184.c4 (clade AE) (HIV)
[28] = target: HIV Env of isolate CNE31 (HIV)
[29] = target: Env of HIV isolate CNE53 (clade C in Table 7) (HIV)
[30] = target: Env of HIV isolate 3873.v1.c24 (clade C) (HIV)
[31] = target: Env of HIV isolate TV1.29 (clade C) (HIV)
[32] = target: Env of HIV isolate 3988.25 (clade B) (HIV)
[33] = target: Env of HIV isolate 0330.v4.c3 (clade A) (HIV)
[34] = target: Env of HIV isolate CH070.1 (clade BC) (HIV)
[35] = target: Env of HIV isolate 6631.v3.c10 (clade C) (HIV)
[36] = target: Env of HIV isolate CNE4 (clade B) (HIV)
[37] = target: Env of HIV isolate WITO.33 (clade B) (HIV)
[38] = target: HIV Env of isolate 3016.v5.c45 (HIV)
[39] = target: Env of HIV isolate 3326.v4.c3 (clade CD) (HIV)
[40] = target: Env of HIV isolate 191821.E6.1 (clade D) (HIV)
[41] = target: HIV Env of isolate 0921.v2.c14 (HIV)
[42] = target: Env of HIV isolate MI369.A5 (clade A) (HIV)
[43] = target: Env of HIV isolate CNE5 (clade AE) (HIV)
[44] = target: HIV Env of isolate CNE21 (HIV)
[45] = target: Env of HIV isolate Bal.01 (clade B) (HIV)
[46] = target: Env of HIV isolate 231965.c01 (clade D) (HIV)
[47] = target: Env of HIV isolate 16936-2.21 (clade C) (HIV)
[48] = target: Env of HIV isolate X1632.S2.B10 (clade G) (HIV)
[49] = target: HIV Env of isolate CAP45.G3 (HIV)
[50] = target: Env of HIV isolate BS208.B1 (clade A) (HIV)

B1: ePGT121.18 (ePGT121.18.H1 VH and ePGT121.17.L1 VL) (antibody, V domains shown)
VH: QMQLQESGPGLVKPGETLSLTCSVSGASISSSYWSWLRETPGKGLEWIGYTHHSGDTNYAPSLKSRVHLGLHPSKNQVSLSLTSVTAADTAVYYCARTLHGRRIYGVVAFNEYYTYFYWPTWGKGTQVTVSS
VL: SDISVAPGETVRITCGGESIGSRAVQWYQHRPGQAPRLIIYNNQDRPPGIPERFSGSPDIDFGTTATLTISNVEAGDEATYYCHIWDSRRPTNWELGPGTTLTVL
- IC50, pseudovirus neutralization [1]: 0.001 µg/mL
- IC80, pseudovirus neutralization (M1) [2]: 0.302 µg/mL
- IC80, pseudovirus neutralization (M2) [2]: 0.337 µg/mL
- IC50, pseudovirus neutralization [3]: 0.002 µg/mL
- IC50, pseudovirus neutralization [4]: 0.001 µg/mL
- IC50, pseudovirus neutralization [5]: > 50 µg/mL
- IC80, pseudovirus neutralization (M1) [6]: 0.013 µg/mL
- IC80, pseudovirus neutralization (M2) [6]: 0.013 µg/mL
- IC50, pseudovirus neutralization [7]: 0.002 µg/mL
- IC80, pseudovirus neutralization (M1) [8]: 0.005 µg/mL
- IC80, pseudovirus neutralization (M2) [8]: 0.008 µg/mL
- IC50, pseudovirus neutralization [9]: > 50 µg/mL
- IC50, pseudovirus neutralization [10]: > 50 µg/mL
- IC50, pseudovirus neutralization [11]: > 50 µg/mL
- IC50, pseudovirus neutralization [12]: 0.005 µg/mL
- IC50, pseudovirus neutralization [13]: 0.002 µg/mL
- IC50, pseudovirus neutralization [14]: > 50 µg/mL
- IC80, pseudovirus neutralization (M1) [15]: 0.008 µg/mL
- IC80, pseudovirus neutralization (M2) [15]: 0.013 µg/mL
- IC80, pseudovirus neutralization (M1) [16]: 0.01 µg/mL
- IC80, pseudovirus neutralization (M2) [16]: 0.014 µg/mL
- IC50, pseudovirus neutralization [17]: 0.006 µg/mL
- IC50, pseudovirus neutralization [18]: 0.02 µg/mL
- IC50, pseudovirus neutralization [19]: 0.002 µg/mL
- IC50, pseudovirus neutralization [20]: 1.17 µg/mL
- IC50, pseudovirus neutralization [21]: 0.004 µg/mL
- IC80, pseudovirus neutralization (M1) [22]: 0.004 µg/mL
- IC80, pseudovirus neutralization (M2) [22]: 0.005 µg/mL
- IC50, pseudovirus neutralization [23]: 0.005 µg/mL
- IC50, pseudovirus neutralization [24]: > 50 µg/mL
- IC50, pseudovirus neutralization [25]: 0.002 µg/mL
- IC50, pseudovirus neutralization [26]: 0.002 µg/mL
- IC50, pseudovirus neutralization [27]: > 50 µg/mL
- IC80, pseudovirus neutralization (M1) [28]: 0.049 µg/mL
- IC80, pseudovirus neutralization (M2) [28]: 0.078 µg/mL
- IC50, pseudovirus neutralization [29]: 0.003 µg/mL
- IC50, pseudovirus neutralization [30]: 0.003 µg/mL
- IC50, pseudovirus neutralization [31]: 0.002 µg/mL
- IC50, pseudovirus neutralization [32]: 0.003 µg/mL
- IC50, pseudovirus neutralization [33]: 0.003 µg/mL
- IC50, pseudovirus neutralization [34]: 0.0008 µg/mL
- IC50, pseudovirus neutralization [35]: 0.01 µg/mL
- IC50, pseudovirus neutralization [36]: 0.002 µg/mL
- IC50, pseudovirus neutralization [37]: 0.004 µg/mL
- IC80, pseudovirus neutralization (M1) [38]: > 50 µg/mL
- IC80, pseudovirus neutralization (M2) [38]: > 50 µg/mL
- IC50, pseudovirus neutralization [39]: 0.306 µg/mL
- IC50, pseudovirus neutralization [40]: 0.015 µg/mL
- IC80, pseudovirus neutralization (M1) [41]: 1.03 µg/mL
- IC80, pseudovirus neutralization (M2) [41]: 1.49 µg/mL
- IC50, pseudovirus neutralization [42]: 0.002 µg/mL
- IC50, pseudovirus neutralization [43]: 7.18 µg/mL
- IC80, pseudovirus neutralization (M1) [44]: 0.002 µg/mL
- IC80, pseudovirus neutralization (M2) [44]: 0.002 µg/mL
- IC50, pseudovirus neutralization [45]: 0.002 µg/mL
- IC50, pseudovirus neutralization [46]: 9.17 µg/mL
- IC50, pseudovirus neutralization [47]: 0.002 µg/mL
- IC50, pseudovirus neutralization [48]: > 50 µg/mL
- IC80, pseudovirus neutralization (M1) [49]: 20.6 µg/mL
- IC80, pseudovirus neutralization (M2) [49]: 47.5 µg/mL
- IC50, pseudovirus neutralization [50]: > 50 µg/mL

B2: ePGT121.18.17 (ePGT121.18.H17 VH and ePGT121.17.L1 VL) (antibody, V domains shown)
VH: B1 VH with H68T, L69I, H72D
VL: B1 VL
- IC50, pseudovirus neutralization [1]: 0.002 µg/mL
- IC80, pseudovirus neutralization [2]: 1 µg/mL
- IC50, pseudovirus neutralization [3]: 0.004 µg/mL
- IC50, pseudovirus neutralization [4]: 0.002 µg/mL
- IC50, pseudovirus neutralization [5]: > 50 µg/mL
- IC80, pseudovirus neutralization [6]: 0.036 µg/mL
- IC50, pseudovirus neutralization [7]: 0.006 µg/mL
- IC80, pseudovirus neutralization [8]: 0.031 µg/mL
- IC50, pseudovirus neutralization [9]: > 50 µg/mL
- IC50, pseudovirus neutralization [10]: > 50 µg/mL
- IC50, pseudovirus neutralization [11]: > 50 µg/mL
- IC50, pseudovirus neutralization [12]: 0.018 µg/mL
- IC50, pseudovirus neutralization [13]: 0.004 µg/mL
- IC50, pseudovirus neutralization [14]: > 50 µg/mL
- IC80, pseudovirus neutralization [15]: 0.025 µg/mL
- IC80, pseudovirus neutralization [16]: 0.028 µg/mL
- IC50, pseudovirus neutralization [17]: 0.017 µg/mL
- IC50, pseudovirus neutralization [18]: 0.124 µg/mL
- IC50, pseudovirus neutralization [19]: 0.005 µg/mL
- IC50, pseudovirus neutralization [20]: 1.2 µg/mL
- IC50, pseudovirus neutralization [21]: 0.013 µg/mL
- IC80, pseudovirus neutralization [22]: 0.012 µg/mL
- IC50, pseudovirus neutralization [23]: 0.016 µg/mL
- IC50, pseudovirus neutralization [24]: > 50 µg/mL
- IC50, pseudovirus neutralization [25]: 0.005 µg/mL
- IC50, pseudovirus neutralization [26]: 0.005 µg/mL
- IC50, pseudovirus neutralization [27]: > 50 µg/mL
- IC80, pseudovirus neutralization [28]: 0.25 µg/mL
- IC50, pseudovirus neutralization [29]: 0.006 µg/mL
- IC50, pseudovirus neutralization [30]: 0.011 µg/mL
- IC50, pseudovirus neutralization [31]: 0.011 µg/mL
- IC50, pseudovirus neutralization [32]: 0.004 µg/mL
- IC50, pseudovirus neutralization [33]: 0.012 µg/mL
- IC50, pseudovirus neutralization [34]: 0.003 µg/mL
- IC50, pseudovirus neutralization [35]: 0.063 µg/mL
- IC50, pseudovirus neutralization [36]: 0.008 µg/mL
- IC50, pseudovirus neutralization [37]: 0.015 µg/mL
- IC80, pseudovirus neutralization [38]: > 50 µg/mL
- IC50, pseudovirus neutralization [39]: 0.633 µg/mL
- IC50, pseudovirus neutralization [40]: 0.104 µg/mL
- IC80, pseudovirus neutralization [41]: 3.48 µg/mL
- IC50, pseudovirus neutralization [42]: 0.008 µg/mL
- IC50, pseudovirus neutralization [43]: 47 µg/mL
- IC80, pseudovirus neutralization [44]: 0.005 µg/mL
- IC50, pseudovirus neutralization [45]: 0.003 µg/mL
- IC50, pseudovirus neutralization [46]: > 50 µg/mL
- IC50, pseudovirus neutralization [47]: 0.004 µg/mL
- IC50, pseudovirus neutralization [48]: > 50 µg/mL
- IC80, pseudovirus neutralization [49]: > 50 µg/mL
- IC50, pseudovirus neutralization [50]: > 50 µg/mL

B3: ePGT121.15.H2.L1 (antibody, V domains shown)
VH: B1 VH with Y113W, Y114F, P120E, T121V
VL: B1 VL with T14S, P32A, R37K, S71T, E95V, L96F, P98G
- neutralization (Table 6 value) [44]: 0.000874
